Measured values published in patent US20220380463A1 (Adimab, published 2022).

B1: SAD10318_P04_C11 (ADI-48615) (antibody, V domains shown)
VH: QVQLVQSGAEVKKPGASVKVSCKASGFNIKDYYMHWVRQAPGQRLEWMGWIDLENANTIYDAKFQGRVTITRDTSASTAYMELSSLRSEDTAVYYCARDHHGRYFYDVWGQGTLVTVSS
VL: DIVMTQSPDSLAVSLGERATINCKSSQSLLNARTGHNHLAWYQQKPGQPPKLLIYWASTRESGVPDRFSGSGSGTDFTLTISSLQAEDVAVYYCKQSYSRRTFGGGTKVEIK
notes: IgG; also called Ab218
B2: SAD10320_P01_D01 (ADI-48644) (antibody, V domains shown)
VH: QVQLVQSGAEVKKPGASVKVSCKASGFNIKDYYMHWVRQAPGQRLEWMGWIDLENANTIYDAKFQGRVTITRDTSASTAYMELSSLRSEDTAVYYCARDAYGHGFYDVWGQGTLVTVSS
VL: DIVMTQSPDSLAVSLGERATINCKSSQSLLNARTGKNYLAWYQQKPGQPPKLLIYWASTRESGVPDRFSGSGSGTDFTLTISSLQAEDVAVYYCKQSYSHRTFGGGTKVEIK
notes: IgG; also called Ab48
B3: SAD10320_P01_B01 (ADI-48643) (antibody, V domains shown)
VH: QVQLVQSGAEVKKPGASVKVSCKASGFNIKDYYMHWVRQAPGQRLEWMGWIDLENANTIYDAKFQGRVTITRDTSASTAYMELSSLRSEDTAVYYCARDAYGHIFYDVWGQGTLVTVSS
VL: DIVMTQSPDSLAVSLGERATINCKSSQSLLNARTGKNYLAWYQQKPGQPPKLLIYWASTRESGVPDRFSGSGSGTDFTLTISSLQAEDVAVYYCKQSYVHRTFGGGTKVEIK
notes: IgG; also called Ab46
B4: SAD10318_P04_D11 (ADI-48616) (antibody, V domains shown)
VH: QVQLVQSGAEVKKPGASVKVSCKASGFNIKDYYMHWVRQAPGQRLEWMGWIDLENANTIYDAKFQGRVTITRDTSASTAYMELSSLRSEDTAVYYCARDAYGHYFYDVWGQGTLVTVSS
VL: DIVMTQSPDSLAVSLGERATINCKSSQSLLNARTGHNHLAWYQQKPGQPPKLLIYWASTRESGVPDRFSGSGSGTDFTLTISSLQAEDVAVYYCHQSYSHRTFGGGTKVEIK
notes: IgG; also called Ab219
B5: SAD10320_P03_D09 (ADI-48655) (antibody, V domains shown)
VH: QVQLVQSGAEVKKPGASVKVSCKASGFNIKDYYMHWVRQAPGQRLEWMGWIDLENANTIYDAKFQGRVTITRDTSASTAYMELSSLRSEDTAVYYCARDAYGHDFYDVWGQGTLVTVSS
VL: DIVMTQSPDSLAVSLGERATINCKSSQSLLNARTGKNYLAWYQQKPGQPPKLLIYWASTRESGVPDRFSGSGSGTDFTLTISSLQAEDVAVYYCKQSWHRRTFGGGTKVEIK
notes: IgG; also called Ab100
B6: SAD10320_P01_E01 (ADI-48645) (antibody, V domains shown)
VH: QVQLVQSGAEVKKPGASVKVSCKASGFNIKDYYMHWVRQAPGQRLEWMGWIDLENANTIYDAKFQGRVTITRDTSASTAYMELSSLRSEDTAVYYCARDAYGHVFYDVWGQGTLVTVSS
VL: DIVMTQSPDSLAVSLGERATINCKSSQSLLNARTGKNYLAWYQQKPGQPPKLLIYWASTRESGVPDRFSGSGSGTDFTLTISSLQAEDVAVYYCKQSYKHRTFGGGTKVEIK
notes: IgG; also called Ab49
B7: SAD10320_P02_E04 (ADI-48649) (antibody, V domains shown)
VH: QVQLVQSGAEVKKPGASVKVSCKASGFNIKDYYMHWVRQAPGQRLEWMGWIDLENANTIYDAKFQGRVTITRDTSASTAYMELSSLRSEDTAVYYCARDAYHEYFYDVWGQGTLVTVSS
VL: DIVMTQSPDSLAVSLGERATINCKSSQSLLNARTGKNYLAWYQQKPGQPPKLLIYWASTRESGVPDRFSGSGSGTDFTLTISSLQAEDVAVYYCKQSHVRRTFGGGTKVEIK
notes: IgG; also called Ab72
B8: SAD10320_P02_C06 (ADI-48654) (antibody, V domains shown)
VH: QVQLVQSGAEVKKPGASVKVSCKASGFNIKDYYMHWVRQAPGQRLEWMGWIDLENANTIYDAKFQGRVTITRDTSASTAYMELSSLRSEDTAVYYCARDAYGRYFYDVWGQGTLVTVSS
VL: DIVMTQSPDSLAVSLGERATINCKSSQSLLNARTGKNYLAWYQQKPGQPPKLLIYWASTRESGVPDRFSGSGSGTDFTLTISSLQAEDVAVYYCKQSGHRRTFGGGTKVEIK
notes: IgG; also called Ab84
B9: SAD10320_P01_A02 (ADI-48646) (antibody, V domains shown)
VH: QVQLVQSGAEVKKPGASVKVSCKASGFNIKDYYMHWVRQAPGQRLEWMGWIDLENANTIYDAKFQGRVTITRDTSASTAYMELSSLRSEDTAVYYCARDAYPHYFYDVWGQGTLVTVSS
VL: DIVMTQSPDSLAVSLGERATINCKSSQSLLNARTGKNYLAWYQQKPGQPPKLLIYWASTRESGVPDRFSGSGSGTDFTLTISSLQAEDVAVYYCKQSYHERTFGGGTKVEIK
notes: IgG; also called Ab53
B10: SAD10319_P01_D01 (ADI-48622) (antibody, V domains shown)
VH: QVQLVQSGAEVKKPGASVKVSCKASGYTFKSYDMHWVRQAPGQRLEWMGWIDAGTGNTKYSQKFQGRVTITRDTSASTAYMELSSLRSEDTAVYYCARDAYGRYFYDVWGQGTLVTVSS
VL: DIVMTQSPDSLAVSLGERATINCKSSQSLLNARTGKNYLAWYQQKPGQPPKLLIYWASTRESGVPDRFSGSGSGTDFTLTISSLQAEDVAVYYCKQSYSRRTFGGGTKVEIK
notes: IgG; also called Ab231
B11: SAD10320_P02_C04 (ADI-48648) (antibody, V domains shown)
VH: QVQLVQSGAEVKKPGASVKVSCKASGFNIKDYYMHWVRQAPGQRLEWMGWIDLENANTIYDAKFQGRVTITRDTSASTAYMELSSLRSEDTAVYYCARDAYGRYFYDVWGQGTLVTVSS
VL: DIVMTQSPDSLAVSLGERATINCKSSQSLLNARTGKNYLAWYQQKPGQPPKLLIYWASTRESGVPDRFSGSGSGTDFTLTISSLQAEDVAVYYCKQSHTRRTFGGGTKVEIK
notes: IgG; also called Ab71
B12: SAD10320_P02_H05 (ADI-48652) (antibody, V domains shown)
VH: QVQLVQSGAEVKKPGASVKVSCKASGFNIKDYYMHWVRQAPGQRLEWMGWIDLENANTIYDAKFQGRVTITRDTSASTAYMELSSLRSEDTAVYYCARDAHHRYFYDVWGQGTLVTVSS
VL: DIVMTQSPDSLAVSLGERATINCKSSQSLLNARTGKNYLAWYQQKPGQPPKLLIYWASTRESGVPDRFSGSGSGTDFTLTISSLQAEDVAVYYCKQSHSRRTFGGGTKVEIK
notes: IgG; also called Ab81
B13: SAD10318_P04_H11 (ADI-48617) (antibody, V domains shown)
VH: QVQLVQSGAEVKKPGASVKVSCKASGFNIKDYYMHWVRQAPGQRLEWMGWIDLENANTIYDAKFQGRVTITRDTSASTAYMELSSLRSEDTAVYYCARDHYGRYFYDHWGQGTLVTVSS
VL: DIVMTQYPDSLAVSLGERATINCKSSQSLLNAHTGHNYLAWYQQKPGQPPKLLIYWASTRESGVPDRFSGSGSGTDFTLTISSLQAEDVAVYYCHQSYSHRTFGGGTKVEIK
notes: IgG; also called Ab223
B14: SAD10320_P01_F03 (ADI-48647) (antibody, V domains shown)
VH: QVQLVQSGAEVKKPGASVKVSCKASGFNIKDYYMHWVRQAPGQRLEWMGWIDLENANTIYDAKFQGRVTITRDTSASTAYMELSSLRSEDTAVYYCARDAYPHYFYDVWGQGTLVTVSS
VL: DIVMTQSPDSLAVSLGERATINCKSSQSLLNARTGKNYLAWYQQKPGQPPKLLIYWASTRESGVPDRFSGSGSGTDFTLTISSLQAEDVAVYYCKQSYLHRTFGGGTKVEIK
notes: IgG; also called Ab65
B15: SAD10320_P02_F05 (ADI-48651) (antibody, V domains shown)
VH: QVQLVQSGAEVKKPGASVKVSCKASGFNIKDYYMHWVRQAPGQRLEWMGWIDLENANTIYDAKFQGRVTITRDTSASTAYMELSSLRSEDTAVYYCARDAYGRYHYDVWGQGTLVTVSS
VL: DIVMTQSPDSLAVSLGERATINCKSSQSLLNARTGKNYLAWYQQKPGQPPKLLIYWASTRESGVPDRFSGSGSGTDFTLTISSLQAEDVAVYYCKQSYRHRTFGGGTKVEIK
notes: IgG; also called Ab79
B16: SAD10318_P04_D10 (ADI-48613) (antibody, V domains shown)
VH: QVQLVQSGAEVKKPGASVKVSCKASGFNIKDYYMHWVRQAPGQRLEWMGWIDLENANTIYDAKFQGRVTITRDTSASTAYMELSSLRSEDTAVYYCARDAYGHYHYDVWGQGTLVTVSS
VL: DIVMTQSPDSLAVSLGERATINCKSSQSLLHARTGKNHLAWYQQKPGQPPKLLIYWASTRESGVPDRFSGSGSGTDFTLTISSLQAEDVAVYYCKQSYSRRTFGGGTKVEIK
notes: IgG; also called Ab211
B17: SAD10320_P02_B06 (ADI-48653) (antibody, V domains shown)
VH: QVQLVQSGAEVKKPGASVKVSCKASGFNIKDYYMHWVRQAPGQRLEWMGWIDLENANTIYDAKFQGRVTITRDTSASTAYMELSSLRSEDTAVYYCARDAYGHWFYDVWGQGTLVTVSS
VL: DIVMTQSPDSLAVSLGERATINCKSSQSLLNARTGKNYLAWYQQKPGQPPKLLIYWASTRESGVPDRFSGSGSGTDFTLTISSLQAEDVAVYYCKQSYHHRTFGGGTKVEIK
notes: IgG; also called Ab83

Columns and labels:
[1] = molecular target: T1, human CD3 on CD3+ Jurkat cells (human, UniProt P07766 23-207); assay: flow cytometry, 100 nM IgG on CD3+ Jurkat cells, pH 6.0
T1 construct: whole, on cells; Native CD3 complex on cells; the other CD3 chains are not specified for this assay; also called Human CD3+ Jurkat
T1 sequence (P07766 23-207): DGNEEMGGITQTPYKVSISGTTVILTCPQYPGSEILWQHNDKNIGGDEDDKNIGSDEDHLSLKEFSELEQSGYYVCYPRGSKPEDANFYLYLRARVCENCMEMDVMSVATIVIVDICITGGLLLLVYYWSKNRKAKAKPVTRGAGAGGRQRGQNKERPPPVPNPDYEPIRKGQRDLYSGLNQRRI
In short: (§1)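 Jurkat cells incubated 20 min on ice with 100 nM yeast-produced IgG in PBS + 0.1% BSA at pH 6.0 or pH 7.4, with all washes and staining at the same pH. Bound antibody detected with anti-human IgG-RPE, dead cells excluded by propidium iodide; MFI measured by flow cytometry.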

[2] = molecular target: T1, human CD3 on CD3+ Jurkat cells; assay: flow cytometry, 100 nM IgG on CD3+ Jurkat cells, pH 7.4
In short: as §1

[3] = molecular target: T1, human CD3 on CD3+ Jurkat cells; assay: flow cytometry on CD3+ Jurkat cells, ratio of MFI at pH 6.0 to pH 7.4
In short: as §1

Binder | MFI pH 6.0 [1] [MFI] | MFI pH 7.4 [2] [MFI] | MFI pH 6.0/MFI pH 7.4 [3]
B1 | 40 | 37 | 1.1
B2 | 860 | 124 | 6.9
B3 | 4200 | 265 | 15.9
B4 | 36 | 41 | 0.9
B5 | 1180 | 581 | 2
B6 | 450 | 41 | 11.1
B7 | 2320 | 639 | 3.6
B8 | 5590 | 4890 | 1.1
B9 | 1270 | 53 | 24.1
B10 | 3060 | 567 | 5.4
B11 | 6160 | 5140 | 1.2
B12 | 5750 | 4760 | 1.2
B13 | 166 | 53 | 3.1
B14 | 4340 | 141 | 30.9
B15 | 5620 | 4110 | 1.4
B16 | 52 | 66 | 0.8
B17 | 3110 | 1030 | 3
